Results as given in the supplement of paper PMC9170038.

Test system: MS2 coat protein
Assay: apparent KD of MS2 coat protein; designed switch direction (-1 OFF switch, 1 ON switch): 1; higher = weaker reporter binding
Procedure, shortened: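 Designed RNA switches were transcribed on Illumina chips by stalled E. coli RNA polymerase and titrated with SNAP-549-labelled MS2 coat protein from 0.7 or 1.5 nM, doubling to 3 µM. Step length ran from 0.8–1.5 h at the lowest concentration to 10–20 min at the highest. The apparent KD is the median over clusters for each design, from curve-fitted normalised cluster fluorescence.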

[1] = input ligand: microRNA oligo, concentration not stated
[2] = Eterna round: R95, input ligand: FMN 200 uM
[3] = Eterna round: R95, input ligand: microRNA oligo, concentration not stated
[4] = Eterna round: R95, input ligand: none

AGGCUCAGACGAGGAUAUAUGCGAUCACAUGAGGAUCACCCAUGUCUCGAGCUUCGGCUCGAGGCAUAGAAGGUGUCUGAGCCA [SSNG2/4-C1] (Eterna round: R96, puzzle: Same State NG 2)
apparent KD of MS2 coat protein (input ligand: FMN 200 uM): 31.4 nM
apparent KD of MS2 coat protein [1]: 111 nM
apparent KD of MS2 coat protein (input ligand: none): 126 nM

GCUCGAAUCACAGCCAACAUGAGGAUCACCCAUGUGUGUUGGUAGGAUAUCGUUUCUAAGGGAAACGAGAAGGGCCGAACGAGC [SameState NG3 #9] (Eterna round: R96, puzzle: Same State NG 3)
apparent KD of MS2 coat protein (input ligand: FMN 200 uM): 31.5 nM
apparent KD of MS2 coat protein [1]: 39.2 nM
apparent KD of MS2 coat protein (input ligand: none): 52.1 nM

UGUUGUAUUACAGGAUAUCUAGUAUUUUUAAUUAGAGAAGGGUAUUCACAUGAGGAUCACCCAUGUAUAUACGAGGAAGUUGUG [JMF's solution 48] (Eterna round: R96, puzzle: Same State NG 1)
apparent KD of MS2 coat protein [1]: 34 nM

AUUAAACAUGAGGAUCACCCAUGUCAACAAAGUCGAGGAUAUGGGCAAAUAAAAUAAGAACCAGAAGGCGAAUUAU [salish99_ss1_r3_079] (puzzle: Same State 1)
apparent KD of MS2 coat protein [2]: 32.6 nM
apparent KD of MS2 coat protein [3]: 337 nM
apparent KD of MS2 coat protein [4]: 312 nM

AAGUAACAUGAGGAUCACCCAUGUGAGGUGAGCGUAGGAUAUCGAGGAGGUAGGGUAGGUCGAGAAGGACGAGAAG [JR_SS1_Sub095] (puzzle: Same State 1)
apparent KD of MS2 coat protein [2]: 323 nM
apparent KD of MS2 coat protein [3]: 210 nM
apparent KD of MS2 coat protein [4]: 700 nM

AGUCCAGCCUGAGCUGGACAAAAGCAUGUACAUGAGGAUCACCCAUGUCAUGUACAAGCUUUUUGCUCGUCUUAAAG [Mat - hsa-mir-208a - Mod of JL - D23] (puzzle: Sensor for hsa-mir-208a)
apparent KD of MS2 coat protein [2]: 231 nM
apparent KD of MS2 coat protein [3]: 18 nM
apparent KD of MS2 coat protein [4]: 312 nM

AAAGAAAACGCAGGAUAUCCCGGAAUGGAACCGGGAGAAGGGUGACCGGUACAUGAGGAUCACCCAUGUAGAGCAAAGGCUCAA [Oninqu] (Eterna round: R96, puzzle: Same State NG 1)
apparent KD of MS2 coat protein (input ligand: FMN 200 uM): 78 nM
apparent KD of MS2 coat protein [1]: 114 nM
apparent KD of MS2 coat protein (input ligand: none): 124 nM

GCUCGACUGAUGGCCUACAUGAGGAUCACCCAUGUGAUUGGGCAGGAUAUCUAGAUGCAGGAUGUAGAGAAGGGCCUGUCGAGC [SameState NG3 #44] (Eterna round: R96, puzzle: Same State NG 3)
apparent KD of MS2 coat protein (input ligand: FMN 200 uM): 1170 nM
apparent KD of MS2 coat protein [1]: 194 nM
apparent KD of MS2 coat protein (input ligand: none): 349 nM

UUAAGCCGCGGGCAGGAUAUGUAUUAAAAUACAUGAGGAUCACCCAUGUGCAGGUGUAACACCUGACAGAAGGGCCAAUCGCGGC [Soteed - 5] (puzzle: Same State 2)
apparent KD of MS2 coat protein [2]: 21.2 nM
apparent KD of MS2 coat protein [3]: 116 nM
apparent KD of MS2 coat protein [4]: 229 nM

UAGGUUGAGCAAGGAUAUCCAAGAUUGAUUCGUAUCGACAUGAGGAUCACCCAUGUCCCGAGAAGGGAGAAGGUGCGUCCAACC [Eternabot solution 30] (Eterna round: R96, puzzle: Same State NG 2)
apparent KD of MS2 coat protein (input ligand: FMN 200 uM): 15.4 nM
apparent KD of MS2 coat protein [1]: 27.9 nM
apparent KD of MS2 coat protein (input ligand: none): 42.3 nM

AUAAAACAUGAGGAUCACCCAUGUCAACAAAGUCGAGGAUAUGGGCAAAGAAAAUAAGAACCAGAAGGCGAAUAAU [salish99_ss1_r3_056] (puzzle: Same State 1)
apparent KD of MS2 coat protein [2]: 36.2 nM
apparent KD of MS2 coat protein [3]: 319 nM
apparent KD of MS2 coat protein [4]: 489 nM

GGUAGGUUACUACCAAACAUGAGGAUCACCCAUGUAAGUGGGAAGGAUAUGGUACCUAAAAGGUACCAGAAGGUCCAUAUAGUU [Mat - Same State NG 3 - JL Mod - D99] (Eterna round: R96, puzzle: Same State NG 3)
apparent KD of MS2 coat protein (input ligand: FMN 200 uM): 202 nM
apparent KD of MS2 coat protein [1]: 228 nM
apparent KD of MS2 coat protein (input ligand: none): 711 nM

GCUACAUGAGGAUCACCCAUGUGUGCGUGGGAGUGAGUGGCUUAGGAUAUCUAUGAUUUUAGUUGAGAGAAGGAGGAUUGCUGU [SS-NG3-LRO10] (Eterna round: R96, puzzle: Same State NG 3)
apparent KD of MS2 coat protein (input ligand: FMN 200 uM): 193 nM
apparent KD of MS2 coat protein [1]: 140 nM
apparent KD of MS2 coat protein (input ligand: none): 175 nM

GCUCGAAUCAAAACCAACAUGAGGAUCACCCAUGUAUGUUGGUAGGAUAUCGUUUGCUUUGCAAACGAGAAGGACCAAACGAGC [SameState NG3 #2] (Eterna round: R96, puzzle: Same State NG 3)
apparent KD of MS2 coat protein (input ligand: FMN 200 uM): 26.8 nM
apparent KD of MS2 coat protein [1]: 67 nM
apparent KD of MS2 coat protein (input ligand: none): 94.2 nM

CCGCUCCGUGGAGGAUAUGGGCCUGCCCGGGAUAACGGGCCUAACACAUGAGGAUCACCCAUGUCCCAGAAGGCCGCUGGAGCC [Atxerexebe] (Eterna round: R96, puzzle: Same State NG 2)
apparent KD of MS2 coat protein (input ligand: FMN 200 uM): 24.8 nM
apparent KD of MS2 coat protein [1]: 40 nM
apparent KD of MS2 coat protein (input ligand: none): 113 nM

UACAAUCUAUCUGAGGAUAUCAUGAAGAAAACAUGAGGAUCACCCAUGUGCAGGAGAACUGCAAAUGAGAAGGCAGAUAGAUUGU [Mat - Same State 2 - Mod - D1] (puzzle: Same State 2)
apparent KD of MS2 coat protein [2]: 9.46 nM
apparent KD of MS2 coat protein [3]: 12.9 nM
apparent KD of MS2 coat protein [4]: 13.4 nM

UGGUAACAUGAGGAUCACCCAUGUCAAAUGAAUCGAGGAUAUGGGAAAGGAGAAGAGAAACCAGAAGGCGAAGUUG [Altered State 1-13 - Jieux - Same State 1] (puzzle: Same State 1)
apparent KD of MS2 coat protein [2]: 50.7 nM
apparent KD of MS2 coat protein [3]: 54.1 nM
apparent KD of MS2 coat protein [4]: 51.9 nM

AGAGGAGGAGCAGGAUAUGCGAAGAAGAAAGAGGUAGAAGGGCUCAUGGGAUGACAUGAGGAUCACCCAUGUACCGCCCGAGGA [AK SSNG1-V2-8.1] (Eterna round: R96, puzzle: Same State NG 1)
apparent KD of MS2 coat protein (input ligand: FMN 200 uM): 11.5 nM
apparent KD of MS2 coat protein [1]: 46.4 nM
apparent KD of MS2 coat protein (input ligand: none): 297 nM

AUUAAACAUGAGGAUCACCCAUGUCAACAAAGUCGAGGAUAUGGGCAAAUAUUAUAAUAACCAGAAGGCGAAUAAU [salish99_ss1_r3_082] (puzzle: Same State 1)
apparent KD of MS2 coat protein [2]: 27.4 nM
apparent KD of MS2 coat protein [3]: 212 nM
apparent KD of MS2 coat protein [4]: 149 nM

UGUUGUUAAUUAGGAUAUGGUCACAUGAGGAUCACCCAUGUAAUGUCGAUGCUAUGUGGAUUUGAUCAGAAGGAAUGGCUAACA [SameState NG2 #97] (Eterna round: R96, puzzle: Same State NG 2)
apparent KD of MS2 coat protein (input ligand: FMN 200 uM): 105 nM
apparent KD of MS2 coat protein [1]: 242 nM
apparent KD of MS2 coat protein (input ligand: none): 341 nM

GCCGCGUUUCGCGCCUACAUGAGGAUCACCCAUGUUUGUGGGCAGGAUAUCGUCCGCUCUGCGGGCGAGAAGGGCUGUUGUGGG [salish99_SSNG3_R04_024] (Eterna round: R96, puzzle: Same State NG 3)
apparent KD of MS2 coat protein (input ligand: FMN 200 uM): 231 nM
apparent KD of MS2 coat protein [1]: 159 nM
apparent KD of MS2 coat protein (input ligand: none): 215 nM

UGGCUCAGACGAGGAUAUAUGUGAUCACAUGAGGAUCACCCAUGUCUCGAGCUUCGGCUCGAGACAUAGAAGGCGUCUGAGCCU [SSNG2/3-A3] (Eterna round: R96, puzzle: Same State NG 2)
apparent KD of MS2 coat protein (input ligand: FMN 200 uM): 512 nM
apparent KD of MS2 coat protein [1]: 12.3 nM
apparent KD of MS2 coat protein (input ligand: none): 17.8 nM

GAGGGACAGACCAACAUGAGGAUCACCCAUGUCCUCGCAGGUCAGGAUAUCCGUCCAACAGGCAAGGAGAAGGGACGGUGAACC (Eterna round: R96, puzzle: Same State NG 3)
apparent KD of MS2 coat protein (input ligand: FMN 200 uM): 522 nM
apparent KD of MS2 coat protein [1]: 1200 nM
apparent KD of MS2 coat protein (input ligand: none): 724 nM

AGUCCAGAAUAAACUGGACAAAGACAUGUACAUGAGGAUCACCCAUGUCAUGUACAAGUUUUUUGCUCGUCUUAUAA (puzzle: Sensor for hsa-mir-208a)
apparent KD of MS2 coat protein [2]: 39.9 nM
apparent KD of MS2 coat protein [3]: 10.4 nM
apparent KD of MS2 coat protein [4]: 37.2 nM

GUGGUCAAUCAAGGAUAUGGAGCCUUAUUGGCUCCAGAAGGUGGGACAUGAGGAUCACCCAUGUGGCAGUGGUAAAAUGACCAC [Fiskers NG1ss - 37] (Eterna round: R96, puzzle: Same State NG 1)
apparent KD of MS2 coat protein (input ligand: FMN 200 uM): 35.6 nM
apparent KD of MS2 coat protein [1]: 56.8 nM
apparent KD of MS2 coat protein (input ligand: none): 63.4 nM

GGUGGGUUACUACCCACACAUGAGGAUCACCCAUGUAUUGGGAAGGAUAUGGUACCUAUUUGGUACCAGAAGGUCCUGAUGGUG [SS-NG3-LRO15] (Eterna round: R96, puzzle: Same State NG 3)
apparent KD of MS2 coat protein (input ligand: FMN 200 uM): 1280 nM
apparent KD of MS2 coat protein [1]: 312 nM
apparent KD of MS2 coat protein (input ligand: none): 1610 nM

CUCAACAACACAGGAUAUCCAGGGAAAAGCCCUGGAGAAGGGUGACCAACAUGAGGAUCACCCAUGUGACGGCUAAACCGUCUG [Inususisre] (Eterna round: R96, puzzle: Same State NG 1)
apparent KD of MS2 coat protein (input ligand: FMN 200 uM): 319 nM
apparent KD of MS2 coat protein [1]: 509 nM
apparent KD of MS2 coat protein (input ligand: none): 60.7 nM

AGUCCAGCCUGAGCUGGACAAAAGCAUGUACAUGAGGAUCACCCAUGUUCAUGUACAAGCUUUUUGCUCGUCGGAAU [Mat - hsa-mir-208a - Mod of JL - 49] (Eterna round: R96, puzzle: Sensor for hsa-mir-208a)
apparent KD of MS2 coat protein (input ligand: FMN 200 uM): 668 nM
apparent KD of MS2 coat protein [1]: 16.6 nM
apparent KD of MS2 coat protein (input ligand: none): 654 nM

AGCGAACAGUCCUCAAAGGCAACAUGAGGAUCACCCAUGUCAUAGGAUAUGCUAAAAGCUCAGUAGCAGAAGGAUGGAGGACUG [Edatusbe] (Eterna round: R96, puzzle: Same State NG 3)
apparent KD of MS2 coat protein (input ligand: FMN 200 uM): 19.5 nM
apparent KD of MS2 coat protein [1]: 28.1 nM
apparent KD of MS2 coat protein (input ligand: none): 23.5 nM

ACAAGCUUUUCUGCAUUGAAAGGUGGGAUACAUGAGGAUCACCCAUGUUUUUAUGAAAAUAAUGCUCCUCGUCUUAU [JR_SHM208A_Sub092] (puzzle: Sensor for hsa-mir-208a)
apparent KD of MS2 coat protein [2]: 214 nM
apparent KD of MS2 coat protein [3]: 50.3 nM
apparent KD of MS2 coat protein [4]: 243 nM

GGAUGAUAGACAGGAUAUUGAAUGUAAAUAGGACAAGAAGGGUCAAUGAUAUAAACGACCAGUUACAUGAGGAUCACCCAUGUU [JR_SSNG1_Sub023] (Eterna round: R96, puzzle: Same State NG 1)
apparent KD of MS2 coat protein (input ligand: FMN 200 uM): 37.1 nM
apparent KD of MS2 coat protein [1]: 30.5 nM
apparent KD of MS2 coat protein (input ligand: none): 38.9 nM
